Data taken from paper PMC4856307, “A Hidden Transhydrogen Activity of a FMN-Bound Diaphorase under Anaerobic Conditions” (PLoS ONE, 2016).

Legend:
Assay in all cases: purified protein
Assay type in all cases: biochemical, Geobacillus stearothermophilus
purified protein [1] = substrate: NC(=S)c1ccc[n+]([C@@H]2O[C@H](COP(=O)(O)OP(=O)(O)OC[C@H]3O[C@@H](n4cnc5c(N)ncnc54)[C@H](OP(=O)(O)O)[C@@H]3O)[C@@H](O)[C@H]2O)c1; settings: hydride donor NAD(P)H; anaerobic (argon)
purified protein [2] = substrate: NC(=S)c1ccc[n+]([C@@H]2O[C@H](COP(=O)([O-])OP(=O)(O)OC[C@H]3O[C@@H](n4cnc5c(N)ncnc54)[C@H](O)[C@@H]3O)[C@@H](O)[C@H]2O)c1; settings: hydride donor NAD(P)H; anaerobic (argon)
purified protein [3] = substrate: NC(=O)C1=CN([C@@H]2O[C@H](COP(=O)(O)OP(=O)(O)OC[C@H]3O[C@@H](n4cnc5c(N)ncnc54)[C@H](OP(=O)(O)O)[C@@H]3O)[C@@H](O)[C@H]2O)C=CC1; settings: acceptor thio-NAD+; anaerobic (argon); 1x TBS pH 7.4, room temperature; pH 7.4
purified protein [4] = substrate: NC(=O)C1=CN([C@@H]2O[C@H](COP(=O)(O)OP(=O)(O)OC[C@H]3O[C@@H](n4cnc5c(N)ncnc54)[C@H](O)[C@@H]3O)[C@@H](O)[C@H]2O)C=CC1; settings: acceptor thio-NAD+; anaerobic (argon); 1x TBS pH 7.4, room temperature; pH 7.4

B1: FMN-bound diaphorase (FMN-DI, DI, GsDI) (Geobacillus stearothermophilus) (protein)
chain: MTKVLYITAHPHDDTQSYSMAVGKAFIETYKQVHPDHEVIHLDLYKEYIPEIDVDVFSGWGKLRSGKSFEELSDEEKAKVGRMNELCEQFISADKYVFVTPMWNFSFPPVLKAYIDAVAVAGKTFKYTEQGPVGLLTDKKALHIQARGGFYSEGPAAEMEMGHRYLSVIMQFFGVPSFEGLFVEGHAAMPEKAEEIKANAIARAKDLAHTF
notes: full length from 636-bp DNA fragment, E. coli BL21 Star (DE3), plasmid pET20b-Gsdi, Ni-resin purified (C-terminal His tag implied by reverse primer)
B1 showed a Km (purified protein [1]) of 4813 µM, a kcat (purified protein [1]) of about 0.26 s⁻¹ and a Km (purified protein [2]) of 917 µM. For the same protein, the kcat (purified protein [2]) was about 2.4 s⁻¹, the Km (purified protein [3]) was 699 ± 49 µM and the kcat (purified protein [3]) was 1.93 ± 0.06 s⁻¹. The Km (purified protein [4]) was 24 ± 3 µM and the kcat (purified protein [4]) was 1.64 ± 0.05 s⁻¹.
